# Measured values published in patent publication US20030166162.
# T1: GST-wild type calf chymosin pro-peptide-cystatin fusion protein, P09229
# T1 chain: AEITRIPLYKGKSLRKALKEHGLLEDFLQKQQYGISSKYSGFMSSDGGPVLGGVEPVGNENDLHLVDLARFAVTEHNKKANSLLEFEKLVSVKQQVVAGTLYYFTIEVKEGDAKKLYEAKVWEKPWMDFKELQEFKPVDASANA
# Tests used:
# [1] = biological target: glutathione S transferase KLIP 16 chymosin pro-peptide cystatin fusion protein
# [2] = biological target: glutathione S transferase KLIP 4 chymosin pro-peptide cystatin fusion protein
# [3] = biological target: glutathione S transferase KLIP 15 chymosin pro-peptide cystatin fusion protein
# [4] = biological target: glutathione S transferase KLIP 11 chymosin pro-peptide cystatin fusion protein
# [5] = biological target: T1, GST-wild type calf chymosin …
# [6] = biological target: glutathione S transferase KLIP 12 chymosin pro-peptide cystatin fusion protein
# [7] = biological target: glutathione S transferase KLIP 14 chymosin pro-peptide cystatin fusion protein
protein,measurement,setting,value
calf chymosin (protein) GEVASVPLTNYLDSQYFGKIYLGTPPQEFTVLFDTGSSDFWVPSIYCKSNACKNHQRFDPRKSSTFQNLGKPLSIHYGTGSMQGILGYDTVTVSNIVDIQQTVGLSTQEPGDVFTYAEFDGILGMAYPSLASEYSIPVFDNMMNRHLVAQDLFSVYMDRNGQESMLTLGAIDPSYYTGSLHWVPVTVQQYWQFTVDSVTISGVVVACEGGCQAILDTGTSKLVGPSSDILNIQQAIGATQNQYGEFDIDCDNLSYMPTVVFEINGKMYPLTPSAYTSQDQGFCTSGFQSENHSQKWILGDVFIREYYSVFDRANNLVGLAKAI,"% Cystatin accumulation following reaction, 0.5 hr @ 37 C",[1],0%
same,"% Cystatin accumulation following reaction, 1.0 hr @ 37 C",[1],0%
same,"% Cystatin accumulation following reaction, 2.0 hr @ 37 C",[1],0%
same,"% Cystatin accumulation following reaction, 16 hr @ RT",[1],0%
same,"% Cystatin accumulation following reaction, T = 0",[1],0%
same,Scissile bond (N-terminal sequence),[1],Uncleavable
same,"% Cystatin accumulation following reaction, 0.5 hr @ 37 C",[2],100%
same,"% Cystatin accumulation following reaction, 1.0 hr @ 37 C",[2],100%
same,"% Cystatin accumulation following reaction, 2.0 hr @ 37 C",[2],100%
same,"% Cystatin accumulation following reaction, 16 hr @ RT",[2],87%
same,"% Cystatin accumulation following reaction, T = 0",[2],0%
same,"% Cystatin accumulation following reaction, 0.5 hr @ 37 C",[3],40%
same,"% Cystatin accumulation following reaction, 1.0 hr @ 37 C",[3],57.8%
same,"% Cystatin accumulation following reaction, 2.0 hr @ 37 C",[3],77.8%
same,"% Cystatin accumulation following reaction, 16 hr @ RT",[3],85%
same,"% Cystatin accumulation following reaction, T = 0",[3],0%
same,"% Cystatin accumulation following reaction, 0.5 hr @ 37 C",[4],83%
same,"% Cystatin accumulation following reaction, 1.0 hr @ 37 C",[4],80.5%
same,"% Cystatin accumulation following reaction, 2.0 hr @ 37 C",[4],100%
same,"% Cystatin accumulation following reaction, 16 hr @ RT",[4],67.8%
same,"% Cystatin accumulation following reaction, T = 0",[4],0%
same,"% Cystatin accumulation following reaction, 16 hr @ RT; product with N-terminus MSSDGG",[5],50%
same,"% Cystatin accumulation following reaction, 16 hr @ RT; product with N-terminus SGFMSSDGG",[5],50%
same,"% Cystatin accumulation following reaction, T = 0",[5],0%
same,"% Cystatin accumulation following reaction, 0.5 hr @ 37 C",[6],84%
same,"% Cystatin accumulation following reaction, 1.0 hr @ 37 C",[6],99.4%
same,"% Cystatin accumulation following reaction, 2.0 hr @ 37 C",[6],87%
same,"% Cystatin accumulation following reaction, 16 hr @ RT",[6],64%
same,"% Cystatin accumulation following reaction, T = 0",[6],0%
same,"% Cystatin accumulation following reaction, 0.5 hr @ 37 C",[7],72%
same,"% Cystatin accumulation following reaction, 1.0 hr @ 37 C",[7],87%
same,"% Cystatin accumulation following reaction, 2.0 hr @ 37 C",[7],99%
same,"% Cystatin accumulation following reaction, 16 hr @ RT",[7],70%
same,"% Cystatin accumulation following reaction, T = 0",[7],0%
